Assay results taken from patent US20170066807A1 (Pieris, published 2017).

Molecular target: T1, human GPC-3 on cells (SK Hep1:hGPC-3 transfectants; HepG2) (human, UniProt P51654 25-554)
T1 construct: whole, on cells; The same molecule is used for the transfected SK-Hep1 cells and the GPC-3 positive HepG2 cells; The cell line is named under assay; also called Glypican-3
Experiment: confocal microscopy, cell surface staining of SK Hep1:hGPC-3 cells
Method: Incubation of SK Hep1:hGPC-3 and SK Hep1:EV (empty vector control) and HepG2 cells with hNGAL muteins (SEQ ID NOs: 1-6) and staining of GPC-3 and bound hNGAL muteins followed by confocal microscopy. Cells (SK Hep1:GPC-3, SK Hep1:EV or HepG2) were grown at 37° in a humidified CO2 incubator for 24 hrs and exposed to hNGAL muteins 1.0 ug/mL, fixed (4% PFA in PBS) and stained with a rabbit anti-lipocalin antibody overnight at 4° C. prior to addition of secondary donkey anti-rabbit AF568 antibody. For nuclei staining, cells were incubated in 300 uL of DAPI solution (1:50000 DAPI in PBS). Slides were viewed using Leica TCS SP5 DNI6000 CS Confocal Microscope (Leica) using the following lasers. […] Results clearly indicate binding of ail hNGAL muteins (SEQ ID NOs: 2-6) to the cell lines expressing GPC-3 (presence of GPC-3 on the surface of the cells was also confirmed by confocal imaging) and lack of binding of such hNGAL muteins to control cell line (SK-Hep1:EV).

T1 sequence (P51654 25-554 limits assumed): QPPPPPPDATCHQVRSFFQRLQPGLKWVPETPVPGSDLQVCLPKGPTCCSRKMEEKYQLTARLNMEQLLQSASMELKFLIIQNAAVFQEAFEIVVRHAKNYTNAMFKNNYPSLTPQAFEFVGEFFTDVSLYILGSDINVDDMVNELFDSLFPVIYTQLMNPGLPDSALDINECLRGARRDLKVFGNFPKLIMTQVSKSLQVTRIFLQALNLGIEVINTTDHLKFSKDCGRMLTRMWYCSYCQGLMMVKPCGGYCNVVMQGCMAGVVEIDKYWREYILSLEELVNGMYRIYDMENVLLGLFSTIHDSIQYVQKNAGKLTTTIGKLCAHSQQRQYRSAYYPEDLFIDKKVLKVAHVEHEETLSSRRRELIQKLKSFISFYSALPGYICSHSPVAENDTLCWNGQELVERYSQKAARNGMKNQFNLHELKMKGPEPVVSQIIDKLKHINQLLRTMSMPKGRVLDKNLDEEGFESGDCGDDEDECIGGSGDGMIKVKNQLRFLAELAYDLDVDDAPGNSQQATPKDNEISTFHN

binding result: no binding (tested: 1.0 ug/mL)
B1: lipocalin control (SEQ ID NO: 1) (other)
chain: QDSTSDLIPAPPLSKVPLQQNFQDNQFHGKWYVVGLAGNAILREDKDPQKMYATIYELKEDKSYNVTSVLFRKKKCDYWIRTFVPGSQPGEFTLGNIKSYPGLTSYLVRVVSTNYNQHAMVFFKKVSQNREYFKITLYGRTKELTSELKENFIRFSKSLGLPENHIVFPVPIDQCIDG
notes: also called mature human Lipocalin 2; mature hNGAL
